Results reported in publication PMC5180104, “Interaction of cytokeratin 19 head domain and HER2 in the cytoplasm leads to activation of HER2-Erk pathway” (Scientific Reports, 2016).

Target: T1, purified recombinant Flag-tagged HER2 C-terminal domain (human, UniProt P04626 988-1255)
T1 construct: HER2, human, COOH-terminal domain; C-ter is defined as 988-1255 aa in the plasmid section; The results call this protein Flag-tagged; It may be the same construct as m14; source: HEK293T, transfected, purified (antibody bead column)
Experiment: pull-down; purified GST fusion proteins and purified HER2 C-terminal domain; Glutathione sepharose 4B (GSH beads)
Conditions: both partners purified

binding result: binds
B1: GST-T4 (domain or fragment, human, UniProt P08727 1-79, looked up)
chain: MTSYSYRQSSATSSFGGLGGGSVRFGPGVAFRAPSIHGGSGGRGVSVSSARFVSSSSSGAYGGGYGGVLTASDGLLAGN
notes: KRT19, human, T4 fragment (head domain); also called GST-T4 wt; source: E. coli, purified (Glutathione sepharose 4B column)
